Measured values: publication PMC3669286

Target: Smad3 (UniProt P84022)
Assay: co-immunoprecipitation, blot for 14-3-3σ
Settings: reference: wild type; sites S69,S74

- binding against the reference: lost
Substance: 14-3-3σ (from UniProt P31947) S69/74A
